System: K4 kissing-loop RNA reporter
Assay: apparent KD of K4 kissing-loop reporter; higher = weaker reporter binding
Conditions: Eterna round: R107
Description: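 RNA-MaP round R107: designed RNA switches with theophylline, tryptophan, arginine or FMN aptamers are transcribed on-chip within common flanks. They are titrated with a labelled K4 kissing-loop RNA reporter in RNA-MaP buffer (100 mM Tris pH 7.5, 80 mM KCl, 4 mM MgCl2), without ligand or with the indicated ligand. Median apparent KD per design.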

[1] = input ligand: theophylline 20 uM
[2] = input ligand: tryptophan 2.4 mM
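Also: bound reporter read as fluorescence of individual clusters on recovered sequencing chips by microscopy, with normalized cluster intensities fitted with a binding model.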

Sequence	apparent KD of K4 kissing-loop reporter (input ligand: FMN 200 uM)	apparent KD of K4 kissing-loop reporter (input ligand: arginine 13.2 mM)	apparent KD of K4 kissing-loop reporter (input ligand: none)	apparent KD of K4 kissing-loop reporter [1]	apparent KD of K4 kissing-loop reporter [2]
GUCCCAGUGAUGUUGGUAGGCGAGCGGGAUACCAGCCAAGACUCAGGCCCUUGGCAGCCCACAUAUCCCACGUAGGGAUUAGCUC [Same State - Theophylline A (Freestyle 19)]	212 nM	198 nM	223 nM	256 nM	173 nM
AAAUAGAUCAGUCAUCCAGUGAUGUUGGAAGGAGCGUGCGAAAGCACAGGUAGGUCGCCGAAAUAAAAGUGGCUGAUCAAAAUAA	128 nM	216 nM	143 nM	193 nM	102 nM
UGUAUGUGAUUUGAUACCAGACCAGUUGGUGGUAUAUGAGUGAUGUUUAUGUUGGUUUGGGUCCCUUGGCAGCAAAUCGCAUACU [KL-SSTheoB11]	591 nM	307 nM	491 nM	356 nM	386 nM
GGGAGUAGUGCGGCCGCCACUGAGAAAGAAGAAGAAUAUAGUGAUGUUAUAUAGGAAGGGAAGAAUAGGACCGGGCAUUAGAUUU [SSTRyptB.Z]	336 nM	250 nM	340 nM	275 nM	233 nM
UGUCAUUGGUCGGCCGCCACUUCAUAGAGAGUGAUGUUCUUUAAGACGGAUCGAAAGAUCUGUCGAAGGACCGGGACCGAUGACU [FiskerMod 10 - Jieux - Same State - Tryptophan B]	924 nM	527 nM	1390 nM	777 nM	262 nM
UAAUUUAUGUCUUUAAUAUAAUAAUCAGAUACCAGUGAUUUAUGACACCCUUGGCAGCUGUAUAGAGUGAUGUUCUUAUGCUUAA [JR_ExcTheophyA_Sub011]	247 nM	324 nM	278 nM	375 nM	179 nM
GAGGUACAGCUGGCCGUCGAAUUGUCCGAUACCAGACACUCUCUAGUCCCUUGGCAGCGGUGGUAAGUGAUGUUUACAGGCGCCG [theeternabot_exclusion_KL_Theo_A_3]	152 nM	104 nM	147 nM	122 nM	126 nM
UGACUGGACUGAAGGAGCGCUAAACUCCUAGUGAUGUUAGGAAAACGAGACAAAGUCUCGAAGCAGGUAGGUCGCAGUCUAGUCU	172 nM	147 nM	177 nM	162 nM	169 nM
GGUUCUGUUUUAGGUUUAGUGAUGUUGAAUCGAGGACCGGUACGGCCGCCACUCGGUGACGUCGUAACUUUGGAGGUCCUAACCA [theeternabot_exclusion_KL_Trp_A_47]	764 nM	642 nM	665 nM	658 nM	438 nM
UUAAUUCCGGUGGUGUGUAGAACACAGUUACGAGGACCGGUACGGCCGCCACUCGGAUGCACUUUCAGUGAUGUUGAAAGCAUCA [Same State Tryptophan A GF 1]	670 nM	514 nM	643 nM	498 nM	690 nM
GCCGUAGAUCGAAGGAGCGUGCAAGAAUCGUAGUGAUGUUACGGAGAGUGUCACGCCGUCGCACAGGUAGGUCGCGAUCUACGGC	71 nM	76.4 nM	84.1 nM	69.2 nM	66.8 nM
UUAAUAUUGUCGGCCGCCACUGUUUAGUAUUUUGUAUAAUCUAUUUCAAAGUGAUGUUUUGAUUCCAGGACCGGGACAUUUGAUA [JR_Nu_ExcTryptoB_Sub031]	597 nM	414 nM	536 nM	486 nM	298 nM
UCCUAGGCUCGAAAGAGCCUAGGAUUAACUCAGGAUAUCCGGAAACGGAGAAGGGAGUAACUAGUGAUGUUAGGGAUUCCCUAUU	208 nM	94 nM	109 nM	87.9 nM	92.7 nM
AGGCACGAGCAAGGAUAUUGAGUAGAGUGAUGUUCUGCCUGGGUUGGCUCGCAAGAGCCUUCUCAGCGAGAAGGUGCUCGUGCCU [#2 Same State - FMN A Attempt #25 (HarryS)]	286 nM	471 nM	674 nM	614 nM	594 nM
AUUUAUCCGUCCAGCUGAGUGAUGUUUAGCCGAGGACCGGUACGGCCGCCACUCGUAAGAACCUGUUACGUUGGCUCCUGUGGUG [theeternabot_exclusion_KL_Trp_A_49]	244 nM	196 nM	286 nM	201 nM	353 nM
GCUACCUAUGCAGGAUAUGGUAUUACGAGUGAUGUUCGAGGCGAAUAGAGUGAUGUUCUAUUUCCACCAGAAGGGCAUAGGUAGC	143 nM	97.1 nM	125 nM	136 nM	124 nM
CUAUGGAAACAUAGUGAUCGGGAAACCGAUACCAGUAUGGAAACAUACCCUUGGCAGCGGAAUGAUCAAACGGAGUGAUGUUCCG [Theophylline A K4 21]	459 nM	318 nM	648 nM	278 nM	288 nM
UGGAGUUGACGAAAAGUCAACUCCUGAGAUACCAGUGACGAAAGUCACCCUUGGCAGCUCACUGCCAGUGAUGUUGGAAGAUAAA [whbob_SS_Theo_A_w46]	208 nM	149 nM	438 nM	289 nM	585 nM
GGCACUUUUGCUUGGAACCGUCAAGCUCUAUAGGAUAUGCCGAAAGGCAGAAGGAUGGACCUACAGAGUGAUGUUCUGCGUGCCU	393 nM	140 nM	583 nM	134 nM	218 nM
CUUGGGCUUGCGGCCGCCACUCAAACAUCAUUAAGGAUGGUCCACGGGCAAGUGAUGUUUAUCCGGAGGACCGGGCAUAGCGACA [theeternabot_exclusion_KL_Trp_B_23]	337 nM	270 nM	315 nM	315 nM	342 nM
GCCUAGCAGGGAAGGAGCGCCAUAUAAUUAAAAGGUAAUUAAUGAGUGAUGUUCAAAUAAUGGCAGGUAGGUCGCCCUGCUAGGC [KL-SSArg B10]	316 nM	277 nM	283 nM	354 nM	283 nM
GCCGUAGAUUGAAGGAGCGUGGAACUAUGGCUUGAACAGUGAUGUUGUUUAUCUAGGUAGCCACAGGUAGGUCGCAAUCUACGGC	266 nM	201 nM	234 nM	182 nM	178 nM

Sequence	apparent KD of K4 kissing-loop reporter (input ligand: FMN 200 uM)	apparent KD of K4 kissing-loop reporter (input ligand: arginine 13.2 mM)	apparent KD of K4 kissing-loop reporter (input ligand: none)	apparent KD of K4 kissing-loop reporter [1]	apparent KD of K4 kissing-loop reporter [2]
GCAGUGAUGUUGCGGAUGUACAGUGGCGUGCGAGGACCGGUACGGCCGCCACUCGUACAGAGCGAGCUAAUACAUCGAUAGGUGA [whbob_SS_Tryp_A_m5]	230 nM	212 nM	236 nM	288 nM	241 nM
CGUUCCUCUGUCGAUACCAGCUUCAGUUGGCGGCCAGUGAUGUUGGUAUCGCCGAUGCCAAGCCCUUGGCAGCGACAGGAGACCC [Usleanza]	155 nM	165 nM	211 nM	95 nM	163 nM
CCUUCCUAAAACGAUACCAGUUUCUAUCCUCAAUCCAGUGAUGUUGAAUUGAGCUCACAGAACCCUUGGCAGCGUCGCUAUACGG [theeternabot_sameState_KL_Theo_B_39]	214 nM	202 nM	195 nM	180 nM	190 nM
UGACUGGACUGAAGGAGCGUUGAAGGAGCGUAGGCAGUGAUGUUGCCUACAGGUAGGUCGCAGCAGGUAGGUCGCAGUCUAGUCU [ArgBS 27 #DoubleAptamer #SwitchBubble]	132 nM	92.1 nM	108 nM	66.1 nM	107 nM
GGGAGCAAAGCUCCCGGAUGCUAUAGUCAGGAGGAUAUCUGGAAACAGAGAAGGCCUAAGCCAGUGAUGUUGGCUAUAAGCAUCC	475 nM	406 nM	757 nM	629 nM	589 nM
UAUUCUGUUCGAAAGAACGGAAUUUCGGAAGGAGCGAGAGAAAUCUCAGGUAGGUCGCCGAAAUUAUUAGGUAGUGAUGUUACCU [Arginine A K4 5]	126 nM	116 nM	142 nM	124 nM	123 nM
GCGUAUGAUGCUCAAAGAGUAUCUCCCGAUACCAGUAUGGAAACAUACCCUUGGCAGCGGGUAACUGCCCAGUGAUGUUGGACGC [Theophylline A K4 9]	430 nM	253 nM	351 nM	394 nM	326 nM
UGGAGUUGACGAAAAGUCAACUCCUGAGAAGGAGCGGACGAAAGUCCAGGUAGGUCGCUCACUAGCAGUGAUGUUGCUACAUAAA [#OpenEnded 2]	202 nM	211 nM	219 nM	253 nM	208 nM
GCCGUACGCAUGGAUACCAGCGCUCGUCACCUAGCAGUGAUGUUGCUAAUGCCACGAGGACGCCCUUGGCAGCCAUGCGUACGGC	116 nM	101 nM	102 nM	83.3 nM	107 nM
AAAGAUCUUCUAGAAACUAGAAGAUCAAGAGAGGAUAUCCGAAUUCGGAGAAGGCUCACUAAGUGAUGUUUGGAGCCAAUGGCAA [AK2 SS FMN A]	1060 nM	1100 nM	1210 nM	1090 nM	932 nM
AGCUAGUACGCAGGAUAUCGAACAUCAUUUAGUGAGAUCGAGUGAUGUUCGAUCACGUCUUCAGUUCGAGAAGGGCGUACUAGCA [#01 K4 FMN B Same State]	349 nM	423 nM	1090 nM	1220 nM	777 nM
UGACAUUGCUCAGAUACCAGACAAGAGGAUCACCCUUGUGCCAAACGUACAAUAAUAAUUGUCCCUUGGCAGCUGAGCAAUGUCU [TheoBX 14]	73.2 nM	25.4 nM	16.3 nM	80.7 nM	51.6 nM
UUGGUUGUCGUAGGAUAUGUAGGAUAUUCUAAAAUAUGAAGUGAUGUUUCUAUAAUAAGAAGAAGGACAGAAGGACGAUAACCAU [FmnBS 2 - Salish transfer #DoubleAptamer]	84.7 nM	100 nM	111 nM	103 nM	99.1 nM
UUACGAGUGAUGUUCGAAUAAAUCCAUUCAGAGGAUAUAGUAUUAACUAGAAGGCUGAAACCAACUUCGAGUGAUGUUCGAGGAU [Same State FMN A GF 3]	94.5 nM	87.7 nM	108 nM	88.4 nM	90.8 nM
UUAGAGAUCUCAGGAUAUCAGUGAUGUUGGUGUGCAGAUCUGAGAUAGAAUUCUAUCUCAGAUCAAUGAGAAGGGAGAUCUCAUU [AK5 Exc FMN B]	303 nM	149 nM	152 nM	173 nM	142 nM
CCAACAACGAGUGAUGUUCGUUGAUCAGAAGGAGCGUCAAUAAUGACAGGUAGGUCGCUGAUAAUUGGAAAUAGGGCAAUAGCUU [Same State Arginine A GF12]	110 nM	113 nM	115 nM	120 nM	105 nM
ACGAAGGAUGGAAGGAGCGCUCGUCAGUCCUGCGAGUGAUGUUCGUGGGUAAAUAUUCGCGAGCAGGUAGGUCGCCAUCUUGAGC [Soregeor]	144 nM	115 nM	144 nM	134 nM	129 nM
CCAUUCUUUUACGAUACCAGUUUUAUUUAGUUAUUCAUAACCCUUGCCGAGUGAUGUUCGGACCCUUGGCAGCGUUUGCGAGAGG [zaadvmullin]	286 nM	299 nM	355 nM	411 nM	272 nM
GUACGCUCCCGAGUGAUGUUCGGUAAUCGCGAGGAUAUCGCUUUUGCGAGAAGGCGCGGAAUGAGGAAACUCGUUCUGAGUGUAC [FMN A 25]	234 nM	191 nM	253 nM	212 nM	233 nM
CUGACGCUGAUACGGUGGCCGCUGGUCGUGCGAGGACCGGUACGGCCGCCACUCGCAUGAGUGAUGUUCAUGUGUCGUCGUCGUC [#07 K4 Tryptophan A Exclusion]	122 nM	108 nM	113 nM	105 nM	123 nM
UGACUGGACUGAAGGAGCGCUGAACUCCUAGUGAUGUUAGGACAACGAGACAAAGUCUCGAAGCAGGUAGGUCGCAGUCUAGUCU	154 nM	129 nM	154 nM	152 nM	184 nM
GUGCAAAGCACCGGCACGAGCAGCCUAAAGGAGGAUAUGACGAAAGUCAGAAGGCCUAGUGAUGUUAGGCCUUGCUUGAGUCGAA [Omei KL FMN A Exc B v1]	131 nM	137 nM	169 nM	183 nM	151 nM
